Laboratory results as given in the nanobody polyreactivity screen of Harvey et al. (2022).

Test: yeast display, Sf9 membrane polyspecificity reagent, FACS + sequencing; frameworks hold sequencing errors
In short: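 After 36–48 hours of galactose induction, yeast (Saccharomyces cerevisiae BJ5465) displaying a synthetic nanobody library were stained at 4 °C for 1 hour with 10% biotinylated, detergent-solubilized Sf9 membrane reagent. Streptavidin microbeads enriched the stained cells before FACS sorting into low and high (top ~1%) gates on anti-HA and streptavidin fluorescence. Each clone's polyreactivity label reflects its gate of origin.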

Sequence	polyreactivity (PSR sort gate)
QVQLVESGGGLVQAGGSLRLSCAATGFIFDSYAMGWYRQAPGKERELVAAISWSGGRTYYADSVKGRFTISRDNAKNTVYLQMNSLKPEDTAVYYCNVRTKLSTSYDYWGQGTQVTVSS	high polyreactivity
QVQLVESGGGLVQAGGSLRLSCAASGSIFPPYAMGWYRQAPGKERELVATITIRGGSTYYADSVKGRFTISRDNAKNTVYLQMNSLKPEDTAVYYCAADYTKYYRRYYYWGQGTQVTVSS	high polyreactivity
QVQLVESGRGLVQAGGSLRLSCAASGRTFWIYAMGWYRQAPGKERELVAAISRGGSTYADSVKGRFTISRDNAKNTVYLQMNSLKPEDTAVYYCAASTPQYQYYYWGQGTQVTVSS	high polyreactivity
QVQLVESGGGLVQAGGSLRLSCAASGRTFGYNAMGWYRQAPGKERELVAAIRYSGGSTYYADSVKGRFTISRDNAKNTVYLQMNSLKPEDTAVYYCAKETRRYYRGYYYWGQGTQVTVSS	high polyreactivity
QVQLVESGGGLVQAGGSLRLSCAASGSTFFVNAMGWYRQAPGKERELVASITVSSGRTYYADSVKGRFTISRDNAKNTVYLQMNSLKPEDTAVYYCAARHLYWRREGYYWGQGTQVTVSS	high polyreactivity
QVQLVESGGGLVQAGGSLRLSCAASGRIFVGYYAMGWYRQAPGKERELVAAITIGGRTYYADSVKGRFTISRDNAKNTVYLQMNSLKPEDTAVYYCAASKYTRAYQEYGYWGQGTQVTVSS	high polyreactivity
QVQLVESGGGLVQAGGSLRLSCAASGLTFARYAMGWYRQAPGKERELVAGISWSGGRTYYADSVKGRFTISRDNAKNTVYLQMNSLKPEDTAVYYCATTQFQRSGYYYWGQGTQVTVSS	high polyreactivity
QVQLVESGGGLVQAGGSLRLSCAASGIIFRRYAMGWYRQAPGKERELVAVITSGGSTNYADSVKGRFTISRDNAKNTVYLQMNSLKPEDTAVYYCAAKGWVYWIRSRYDYWGQGTQVTVSS	high polyreactivity
QVQLVESGGGLVQAGGSLRLSCAASGSIFLVNAMGWYRQAPGERKELVAAISWSSGSTYYADSVKGRFTISRDNAKNTVYLQMNSLKPEDTAVYYCAKRSSITYRYDYWGQGTQVTVSS	high polyreactivity
QVQLVESGGGLVQAGGSLRLSCAASGSIFGTYAMGWYRQAPGKEREFVADISGIGTSTYYADSVKGRFTISRDNAKNTVYLQMNSLKPEDTAVYYCAACYPPLRGYYYWGQGTQVTVSS	low polyreactivity
QVQLVESGGGLVQAGGTLRLSCAASGRIFVYNAMGWYRQAPGKERELVATITSGGSTYYSDSLKGRFTISRDNAKNTLYFQMNSLKPEDTAVYYCAARRWYVHYFAYGYWGQGTQVTVSS	low polyreactivity
QVQLVESGGGLVQAGGSLRLSCAASGSTFVNNAMGWYRQAPGKERELVASITVGGSTYYADSVKGRFTISRDNAKNTVYLQMNSLKPEDTAVYYCNVQYSYYASDYDYWGQGTQVTVSS	low polyreactivity
QVQLVESGGGLVQAGGSLRLSCAASGSTFDVYAMGWYRQAPGKERELVAAIRSSGGSTFYADSVKGRFTISRDNAKNIVYLQMNSLKPEDTAVYYCAARSFVVSGYNKYYEYGYWGQGTQVTVSS	low polyreactivity
QVQLVESGGGLFQAGGSLRLSCAASGRIFGNNTMGWYRQAPGKERELVAAINSGGRTYYADSVKGRFTISRDNAKYTVYLQMNSLKTEDTAVYYCATTTYKRFYRAPTSKYDYWGQGTLVTVSS	high polyreactivity
QVQLVESGGGLVQAGGSLRLSCAASGSIFDVYAMGWYRQAPGKERELVAAIRTRGGSTYYADSVKGRFTISRDNAKNTVYLQMNSLKPEDTAVYYCAAYPLVSWGRHGTKGDYWGQGTQVTVSS	low polyreactivity
QVQLVESGGGLVQARGSLRLSCAASGSIFFPYAMGWYRQAPGKERELVAAIRYSAGSTYYADSVKGRFTISRDNAKNTVYLQMNSLKPEDTAVYYCNAGSSCWVSRIGYDYWGEGTQVTVSS	high polyreactivity
QVQLVESGGGLVQAGGSLRLRCAASGRTFGRYAMGWYRQAPGKERELVAAISTSGGSTFYADSVKGRITISRDNAKNTVYLLMNSLKPEDTAVYYCAADYRRFWGRYGYWGQGTQVTVSS	high polyreactivity
QVQLEESGGGLVQAGGSIRLSCAASGFIFYYNAMGWYRQAPGKERELVASIRSGGSTNYADSVKGRFTISRDNAKNTVYLQMNSLKPEDTAVYYCAADISRWSHRSKEMYYWGQGTQVTVSS	low polyreactivity
QVQLVESGGGLVQAGGSLRLSCAASGFTFPVNAMGWYRQAPGKERELVAAITKRGGGTYYADSVKGRFTISRDNAKNTVYLQMNSLKPEDTAVYYCAARSFWPYYGGDYDYWGQGTQVTVSS	high polyreactivity
QVQLVESGAGLVQAGGSLRISCDASGSIFWSYAMGWYRQAPGKERELVADITGIGGSTYYADSVKGRFTISRDNAKNTVYLQMNSLKPEDTAVYYCAADTWFTAQTYNFYYRGQGTQVTVSS	high polyreactivity
QVQLVESGGGLVQAGGSLRLSCAASGSTFKKYAIGWYRQAPGKERELVAAITWTGGSTYYADSVKGRFTISRDNAKNTVYLQMNSLKPEDTAVYYCAAYKTYAVKYYWGQGTQVTVSS	high polyreactivity
QVQLVESGGGLVQAGGSLRLSCAASGFTLRLNAMGWYRQAPGKARELVAAITRSGGNTYYADSVKGRFTISRDNAKNTVYLEMNSLKPEDSAVYYCAVRQLDRRSPKYNYWGQGTQVTVSS	high polyreactivity

Sequence	polyreactivity (PSR sort gate)
QDQLVESGGGLVQAGGSLRLSCAASGNIFKCKVMGWYRQAPGKERELVAAISRSGGRTYYADSVKGRFTISRDNAKNTVYLQMNSLKPVDTAVYYCNTKHRTKPTRPVDYWGQGTQVTVSS	high polyreactivity
QVQLVESAGGLVQAGGSLRLSCAASGSILDRYAMGWDRQAPGKERELVAAITYSSGRTYYADSVKGRFTISRDNAKNTVYLQMNSLKPEDTAVYYCAARPFKRSNGGGQYYYWGQGTQLTVSS	high polyreactivity
QVQLVESGGGLVQAGGSLRLSCAASGSIFNRNAMGWYRQAPGKERELVASINYSGGSTYYADSVKGRFTISRDNAKNTVYLQMNSLKPEDTAVYYCAADGKTYYRGGGPYYIYYRYDYWGQGTQVTVSS	low polyreactivity
QVQLVESGGGLVQAGGSLRLSCAASGSTFRIYTMGWYRQAPGKERELVAGISSSGNTNYADSVKGRFTISRDNAKNTVYLQMNSLKPEDTAVYYCNAASLKFTSPVRFGYWGQGTQVTVSS	high polyreactivity
QVQLVESGGGLVQAGGSLRLSCAASGFIFYPYAMGWYRQAAGKERELVASIRRSTASTYYADSVKGRFTISRDNAKNTVYLQMNSLKPEDTAVYYCAARYRSYPKEYDYWGQGTEVTVSS	high polyreactivity
QVQLVESGGGLVQAGGSLRLSCAASGSTFTVYDMGWYRQAPGKERELVAGISRRGSSTYYADSVKGRFTISRDNAKNTVYLQMNSLKPEDTAVYYCAARGAVIRYPDKRYPVRYDYWGQGTQVTVSS	high polyreactivity
QVQLVESGGGLVQAGGSLRLSCAASGSIFKNNAMGWYRQAPGKERELVAAIRSSGGSTYYADSVKGRFTISRDNAKHTVYLQMKSLKPEDTAVYYCAARYRSYPTYYQYNYWGQGTQVTVSS	high polyreactivity
QFQLVESGGGLVQAGGSLRLSCAASGRTLHGYTMGWYRQAPGKVREFVATISSIGGSTYYADSVKGRFTISRDNAKNTVYLQMNSLKPEDTAVYYCNRGRARVIFSGMDYWGQGTQVTVSS	low polyreactivity
QVQLVESGGGLVQAGGSLRLSCAASGRTFRWYTMGWYRQAPGKEREFVAAITWSGSSTNYADSVKGRFTISRDNEKNTVYLQMNSLKPEDTAFYYCAAENRRRRDDYWGQGTQVTVSS	high polyreactivity
QVQLVESGGGLVQAGGSLRLSCAASGRIFFNYAMGWYRQAPGKERELVAAIRGGGSTYADSVKGRFTISRDNAKNTVYLQMNSLKPEDTAVYYCAARYSGSPYHTRRYYYWGQGTQVTVSS	high polyreactivity
QVQLVESGGGLVQAGGSLRLSCAASGRTFRRNTMGWYRQAPGQEWELVAAISSSGSSTYYADSVKGRFTISRDNAKNTVYLQMKSLKPEDTAVYYCAATGYPRFGYWGQGTQVTVSS	high polyreactivity
QVQLVESGGGLVQAGGSLRLSCAASRSTFPFYAMGWYRQAPGKERELVAAITSGGSTYADSVKGRFTISRDNAKNTVYLQMNSLKPEDTAVYYCAASWPRWWRFGYWGQGTQVTVSS	low polyreactivity
QVQHVESGGGLVQAGGSLRISCAASGFISTGNAMGWSRQAPGKERELVAAITTGGSTYYADSVKGRFTISRDNAKNTVYLQMNSLKPEDTAVYYCNAVYVWWDGWGLYYWGQGTQGTVSS	low polyreactivity
QVQLVESGGGLVQAGGSLRLSCAASGFIFHRYVMGWSRQAPGKERELVAAISSGGSTNYADSVKGRFTISRDNAKNTVYLQMNSLKPEDTAVYYCAADGFYYRNWGRFRYYYWGQGTQVTVSS	low polyreactivity
QVQLVESGGGLVQAGGSLRLSCAASGRTFDPNAMGWYRQAPGKERELVAVITARGGNTSYADSVKGRFTISRDNAKNTVYLQMISLKPEDTAVYYCAAPADDTVHYQNYYWGQGTQVTVSS	low polyreactivity
QVLLVESGGGLVQAGGSLRLSFAASGITFYGYDMGWYRQATGKERELVAAITSDGITNYADSVKGRFTISRDNAKNTVYLQMNSLKPEDTAVYYCAADVSFYRRYEWYYYWGQGTQVTVSS	low polyreactivity
QVQLVESGGGLVQAGGSLRLSCAASGSIFSLNAMGWYRQAPGKEREFVAASGGGSTYYADSVKGRFTISRDNAKNTVYLQMNSLKPEDCAVYYCAARVLTDELDYWGQGTQVTVSS	low polyreactivity
QVQLVESGGGLVQAGGSLRLSWAASGSIFYQNPMGSYRQAPGKERELVAAISSAGSTYYADSVKGRFTISRDNAKNTVYLQMNSLKPADTAVYYCAADDLGWWFYSGGEDYYYWGQATQVTVSS	low polyreactivity
QVQLVESGGVLVQAGGSLRLSCAASGLTFQPYVMGWYRHAPGKERELVAAISVRTTRTYYADSVKGRFTISRDNAKNTVYLQMNSLKPEDTAVYYCATRGDYWSPYEDDDYWGQGTQLTVSS	low polyreactivity
QVQLVESGGGLVQAGGSLRLSCDASGYIFNYAMGWYRQAPGKERELVPAISRRGGSTYYADSVKGRFTISRDNAKNTVYLQMNSLKPEDTSVYYCAADRFRRLHYWTYDYWGKGTQVTVSS	high polyreactivity
QVQLVESGGGLVQAGGSLRLSCAASGFTFAFYAMGWYRQAPGKERELVAAISWDGVTTYYADSVKGRFTISRDHAKNTVYLQMNSQKPEDTAVYYCAADYPDYAGSFWPSGMYYWGQGTQVTVSS	low polyreactivity
